Results as given in the supplement of paper PMC9170038.

Tested on: MS2 coat protein
Assay: apparent KD of MS2 coat protein; designed switch direction (-1 OFF switch, 1 ON switch): -1; higher = weaker reporter binding
Method in brief: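 An oligonucleotide input, 200 uM small-molecule ligand, or no input was present during titration of SNAP-549-labelled MS2 coat protein, which was doubled from 0.7 or 1.5 nM to 3 µM. Designed RNA switches had been transcribed on Illumina chips by stalled E. coli RNA polymerase. Apparent KD per design is the median over clusters of curves fitted to normalised cluster fluorescence.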

[1] = input ligand: microRNA oligo, concentration not stated
[2] = Eterna round: R95, input ligand: FMN 200 uM
[3] = Eterna round: R95, input ligand: microRNA oligo, concentration not stated
[4] = Eterna round: R95, input ligand: none

Sequence | apparent KD of MS2 coat protein (input ligand: FMN 200 uM) [µM] | apparent KD of MS2 coat protein [1] [µM] | apparent KD of MS2 coat protein (input ligand: none) [µM] | apparent KD of MS2 coat protein [2] [µM] | apparent KD of MS2 coat protein [3] [µM] | apparent KD of MS2 coat protein [4] [µM]
AGUCAGGCGGUAGGAUAUCCAAAUCGAGUGACCCUCUCAUAACAUGAGGAUCACCCAUGUCGGUGGGAGAAGGGCCGUACGGCG [JL ViennaUCT Atra mod] (Eterna round: R96, puzzle: Exclusion NG 2) | 0.108 | 0.0538 | 0.0478 | – | – | –
AGUCCGUCAGGAUAUGCAAUUGUGGACAUGAGGAUCACCCAUGUAACGUGGGCUUGGUUUGUAGAAGGGACGUGCA [EX5 #91] (Eterna round: R97, puzzle: Exclusion 5) | 0.351 | – | 0.442 | – | – | –
AGUCCUAACACGAAAGUGUUAGUACAAUAAGCUUGUGAAACAUGAGGAUCACCCAUGUCCUCAUAAGCUCGUCUUAU [salish99_TOv2_r3_015] (Eterna round: R96, puzzle: Sensor v3, turn-off variant 2) | 0.0153 | 0.449 | 0.0177 | – | – | –
AGUCCUAACACGAAAGUGUUAGUACAAUAAGCUUGUGAAACAUGAGGAUCACCCAUGUCCUCAUAAGCUCGUCUUAU [salish99_TOv2_r3_015] (puzzle: Sensor v3, turn-off variant 2) | – | – | – | 0.0166 | 0.896 | 0.0169
AGUCCUGGAGUUAGGAUAUGAAGUAUCACUGCACUUCAGAAGGGACUUGAGGAUCACCCAAGUAGCCGUGAGGG [salish99_bmod_ex4_r4_003] (Eterna round: R97, puzzle: Brourd's mod of Exclusion 4) | 0.108 | – | 0.0567 | – | – | –
AGUCCUGGAGUUAGGAUAUGGAGUAUCACUGCGCUUCAGAAGGGACUUGAGGAUCACCCAAGUAGCCGUGAGGG [salish99_bmod_ex4_r4_005] (Eterna round: R97, puzzle: Brourd's mod of Exclusion 4) | 0.0985 | – | 0.0594 | – | – | –
AGUCCUGGAGUUAGGAUAUGGAGUAUCGCUGCGCUUCAGAAGGGACUUGAGGAUCACCCAAGUAGCCGUGAGGG [salish99_bmod_ex4_r4_006] (Eterna round: R97, puzzle: Brourd's mod of Exclusion 4) | 0.0829 | – | 0.0602 | – | – | –
AGUCGAAAGACCCACAUGGACAUGAGGAUCACCCAUGUACAAGCCUUUUGCUCGUCACUAUCGUCAAAAGACGAUAG [Omei Mir Offv1 A2] (Eterna round: R97, puzzle: Sensor, turn-off variant 1) | 0.0308 | – | 0.0418 | – | – | –
AGUCGGCGAGGAUAUACAUGAGGAUCACCCAUGUGAGAGAUAAAAGUGAGUUAGACAAGUAGAAGGCGCUGACA [JL Lego Mod 9] (Eterna round: R96, puzzle: Exclusion 3) | – | 0.0464 | – | – | – | –
AGUCGGCGAGGAUAUACAUGAGGAUCACCCAUGUGAUAGAGUGCACGCGUACGUGUAUGUAGAAGGCGCUGACA [Mat - Exclusion 3 - Mod of JL D97] (puzzle: Exclusion 3) | – | – | – | – | 0.0614 | –
AGUCGGUCAGGAUAUGCAAUCGUGGACAUGAGGAUCACCCAUGUAACGUGGGCCUGGUUUGUAGAAGGGACGAGCA [EX5 #87] (Eterna round: R97, puzzle: Exclusion 5) | 0.066 | – | 0.0612 | – | – | –
AGUCGGUCAGGAUAUGCAAUUGUGGACAUGAGGAUCACCCAUGUAACGUGGGCCUGGUUUGUAGAAGGGACGUGCA [EX5 #89] (Eterna round: R97, puzzle: Exclusion 5) | 0.105 | – | 0.089 | – | – | –
AGUGCGUAUGUGAGGAUAUGCUGGUCCUUGGAUCGGCAGAAGGCACAUGAGGAUCACCCAUGUGGUGUCGUACA [salish99_Bmod_ex4_085] (puzzle: Brourd's mod of Exclusion 4) | – | – | – | 0.0215 | 0.257 | 0.263
AGUGUAGCAGGAUAUACAUGAGGAUCACCCAUGUUUCCGGGACCAGAGCAUCUGCCAUGUAGAAGGGCUGCCUU [Eternabot (L2) Solution 80] (Eterna round: R97, puzzle: Exclusion 3) | 0.275 | – | 0.225 | – | – | –
AGUGUGAGGCAGGAUAUGCAAUAUGUAAGUAAUGCAGAAGGGUCUACAUGAGGAUCACCCAUGUGUGCGGUUGA [Ex6 #10] (Eterna round: R97, puzzle: Exclusion 6) | 0.282 | – | 0.192 | – | – | –
AGUGUGUGGCAGGAUAUUCUAAUCGUGAGGAGGGAAGAAGGGUCUACAUGAGGAUCACCCAUGUAAGCGGUUGA [Ex6 #42] (Eterna round: R97, puzzle: Exclusion 6) | 0.259 | – | 0.14 | – | – | –
AGUGUGUGGCAGGAUAUUCUAAUGAUUAGGACAGAAGAAGGGUCUACAUGAGGAUCACCCAUGUAAGCGGUUGA [Ex6 #38] (Eterna round: R97, puzzle: Exclusion 6) | 0.211 | – | 0.0823 | – | – | –

Sequence | apparent KD of MS2 coat protein (input ligand: FMN 200 uM) [µM] | apparent KD of MS2 coat protein [1] [µM] | apparent KD of MS2 coat protein (input ligand: none) [µM] | apparent KD of MS2 coat protein [2] [µM] | apparent KD of MS2 coat protein [3] [µM] | apparent KD of MS2 coat protein [4] [µM]
AGUGUGUUAGGAUAUCGGAUAUGCUGGAGGAGGUGGAUUUACGAGAAGGAACAUGAGGAUCACCCAUGUAGGAG [JR_Exclu4_Sub048] (puzzle: Exclusion 4) | – | – | – | – | 0.0362 | –
AGUUACUACAAGCUUUGGGACAUGAGGAUCACCCAUGUUCGUCUUAUUGUAGUAGGUACGCUGACGUACCUACUACA [Mat - Sensor v3 - turn-off var 1 - JL Mod - D7] (puzzle: Sensor v3, turn-off variant 1) | – | – | – | 0.0148 | 0.0396 | 0.0138
AGUUGGCAAGGAUAUACAUGAGGAUCACCCAUGUGAAAUUAUAGUGAGGAAAUGAAAAGUAGAAGGUGCUGACA [Mod of Mat 3 - Jieux - Exclusion 3] (Eterna round: R97, puzzle: Exclusion 3) | 0.114 | – | 0.0309 | – | – | –
AGUUGGCGAGGAUAUACAUGAGGAUCACCCAUGUGAAAUUAAAGUGAGGAAAUGAAAAGUAGAAGGCGCUGACA [Mat - Exclusion 3 - Mod of Salish D56] (puzzle: Exclusion 3) | – | – | – | 0.277 | 0.0317 | 0.0467
AGUUGGCGAGGAUAUACAUGAGGAUCACCCAUGUGAAAUUAAAGUGAGGAAAUGAAAAGUAGAAGGCGCUGACA [Mod of Mat - Jieux - Exclusion 3] (Eterna round: R97, puzzle: Exclusion 3) | 0.686 | – | 0.0677 | – | – | –
AGUUGGCGAGGAUAUACAUGAGGAUCACCCAUGUGAAUAAUAAUAGUGAGGAAGAAAAGUAGAAGGCGCUGACA [Mat - Exclusion 3 - Mod of Salish D35] (puzzle: Exclusion 3) | – | – | – | – | 0.0461 | –
AGUUGGCGAGGAUAUACAUGAGGAUCACCCAUGUGAGAGAGACUAGUGAGGUCGAUUAGUAGAAGGCGCUGACA [Mat X3R4 m11] (Eterna round: R97, puzzle: Exclusion 3) | 0.455 | – | 0.0293 | – | – | –
AGUUGGUCAGGAUAUUCUAUUAAUUACAUGAGGAUCACCCAUGUGAAUGGACAAGGGUGUGAAGAAGGGACUGGCG [Omei Ex5 A17c] (Eterna round: R97, puzzle: Exclusion 5) | 0.692 | – | 1.78 | – | – | –
AGUUGUUGUUUCCGUUCUUACAUGAGGAUCACCCAUGUUUCUUGUCGUGCUCGCGUUGCUCGUCAGACUUCCUGUUG [salish99_TOv1_r3_066] (puzzle: Sensor v3, turn-off variant 1) | – | – | – | 0.0773 | 0.0931 | 0.121
AUAAAAGAGUUAGGAUAUCGGAAAGGAAGUGUACGAGAAGGAACGGUAUCCUCGGAAAGACAUGAGGAUCACCCAUGUAGAAAA [PowerStrip EXNG 1.6] (Eterna round: R96, puzzle: Exclusion NG 1) | 0.0349 | 0.0234 | 0.0354 | – | – | –
AUAAAGAGGCUAGGAUAUACAUCGGUGCGAAAAGACGUAAUCCUUUGAACAUGAGGAUCACCCAUGUAGAAGGAGCAGACGGAA [Quriored] (Eterna round: R96, puzzle: Exclusion NG 2) | 0.0445 | 0.0117 | 0.0174 | – | – | –
AUAAAUAAGGAGGAUAUCGAAUCGGAAACGAUUCGAGAAGGCCUAACAUGAGGAUCACCCAUGUUCCUUAAAUA [Mat - Exclusion 6 - Eli Mod - D63] (puzzle: Exclusion 6) | – | – | – | 0.0302 | 0.0176 | 0.0208
AUAAAUAGCGAGGAUAUCGUAUCGGAAACGAUACGAGAAGGCGUAACAUGAGGAUCACCCAUGUGUCCUCAAUA [Mat - Exclusion 6 - Eli Mod - D6] (Eterna round: R97, puzzle: Exclusion 6) | 0.801 | – | 0.0872 | – | – | –
AUAAAUCAUGUAGGAUAUGCGUGGAGAAGCUAUGCAGAAGGACAUGAGGAUCACCCAUGUGCUUCCGUCUGAGUACAGACGGAA [Mat - Exclusion NG 1 - Mod of JL - D37] (Eterna round: R96, puzzle: Exclusion NG 1) | 0.129 | 0.0994 | 0.0865 | – | – | –
AUAAAUGAGGAGGAUAUCGAAUCGGAAACGAUUCGAGAAGGCCUAACAUGAGGAUCACCCAUGUUCCUUAAAUA [Mat - Exclusion 6 - Eli Mod - D64] (puzzle: Exclusion 6) | – | – | – | – | 0.0253 | –
AUAAAUGAUGAGGAUAUCACUAGCGAUAGCUAGUGAGAAGGCAUCACAUGAGGAUCACCCAUGUGAUCCAAUAA [Mod6 Ex6/6-A4 by Brourd] (Eterna round: R97, puzzle: Exclusion 6) | 0.479 | – | 0.359 | – | – | –
